Source: US20180369344

Biological target: alpha1 antitrypsin (AAT), P01009
Sequence (P01009 whole entry, looked up): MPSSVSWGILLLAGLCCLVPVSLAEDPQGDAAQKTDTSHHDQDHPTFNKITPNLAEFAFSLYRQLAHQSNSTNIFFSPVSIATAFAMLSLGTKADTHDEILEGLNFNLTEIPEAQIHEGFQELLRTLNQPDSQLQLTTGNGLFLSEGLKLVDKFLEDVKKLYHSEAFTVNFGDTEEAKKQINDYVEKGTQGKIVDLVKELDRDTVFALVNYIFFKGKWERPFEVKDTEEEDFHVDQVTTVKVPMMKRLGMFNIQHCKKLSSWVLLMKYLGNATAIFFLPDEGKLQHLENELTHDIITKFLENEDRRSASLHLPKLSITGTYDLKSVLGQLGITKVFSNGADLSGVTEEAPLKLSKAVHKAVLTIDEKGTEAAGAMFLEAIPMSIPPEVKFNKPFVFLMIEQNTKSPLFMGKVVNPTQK

B1: wildtype Cela2a (protein)
chain: VVGGEEARPNSWPWQVSLQYSSNGKWYHTCGGSLIANSWVLTAAHCISSSRTYRVGLGRHNLYVAESGSLAVSVSKIVVHKDWNSNQISKGNDIALLKLANPVSLTDKIQLACLPPAGTILPNNYPCYVTGWGRLQTNGAVPDVLQQGRLLVVDYATCSSSAWWGSSVKTSMICAGGDGVISSCNGDSGGPLNCQASDGRWQVHGIVSFGSRLGCNYYHKPSVFTRVSNYIDWINSVIANN
With B1 the “cleavage of alpha1-antitrypsin” value was “Cela2a cleaves alphal-antitrypsin”.
